# Test results published in doi:10.1101/2025.06.11.659033 (bioRxiv, 2025).
# Like-named read-outs stand apart in the source and are kept apart here.
# What was measured:
# SEC [1] = molecular target: the molecule itself; assay: SEC
# SEC [2] = molecular target: the molecule itself; assay: SEC; remark: listed apart in the source
Protein,stoichiometry N (SEC [1]),stoichiometry N (SEC [2])
"HDPpf-C10 (Δ44N, C-terminal 6His) (domain or fragment, Plasmodium falciparum, UniProt Q8IL04 45-205, looked up) KPVKRTIINLIYSHNELKIFSNLLNHPTVGSSLIHELSLDGPYTAFFPSNEAMQLINIESFNKLYNDENKLSEFVLNHVTKEYWLYRDLYGSSYQPWLMYNEKREAPEKLRNLLNNDLIVKIEGEFKHCNHSIYLNGSKIIRPNMKCHNGVVHIVDKPIIF",2,
"HDPpf-N4 (Δ37N, 3 C-terminal residues deleted) (domain or fragment, Plasmodium falciparum, UniProt Q8IL04 38-202, looked up) VYWCFEHKPVKRTIINLIYSHNELKIFSNLLNHPTVGSSLIHELSLDGPYTAFFPSNEAMQLINIESFNKLYNDENKLSEFVLNHVTKEYWLYRDLYGSSYQPWLMYNEKREAPEKLRNLLNNDLIVKIEGEFKHCNHSIYLNGSKIIRPNMKCHNGVVHIVDKP",,2
